Laboratory results as given in article PMC11497264 (2024).
Bridge positions count the residues as written; N and C are the ends.

B1: Pep42, 13-mer cyclopeptide (peptide)
peptide: H-CTVALPGGYVRVC-NH2
modifications: disulfide 1-13
SMILES: CC(C)C[C@@H]1NC(=O)[C@H](C)NC(=O)[C@H](C(C)C)NC(=O)[C@H]([C@@H](C)O)NC(=O)[C@@H](N)CSSC[C@@H](C(N)=O)NC(=O)[C@H](C(C)C)NC(=O)[C@H](CCCNC(=N)N)NC(=O)[C@H](C(C)C)NC(=O)[C@H](Cc2ccc(O)cc2)NC(=O)CNC(=O)CNC(=O)[C@@H]2CCCN2C1=O
B2: LCP W, loop-derived cyclic peptide based on spike residues 480-488 of the Wuhan strain (peptide)
peptide: H-CNGVEGFNC-NH2
modifications: disulfide 1-9
SMILES: CC(C)[C@@H]1NC(=O)CNC(=O)[C@H](CC(N)=O)NC(=O)[C@@H](N)CSSC[C@@H](C(N)=O)NC(=O)[C@H](CC(N)=O)NC(=O)[C@H](Cc2ccccc2)NC(=O)CNC(=O)[C@H](CCC(=O)O)NC1=O

Legend:
[1] = molecular target: T1, human glucose-regulated protein GRP78 (human, UniProt P11021 19-654); assay: SPR; two-state model, kd1
[2] = molecular target: T1, human glucose-regulated protein GRP78; assay: SPR; two-state reaction model
[3] = molecular target: T1, human glucose-regulated protein GRP78; assay: SPR
[4] = molecular target: T1, human glucose-regulated protein GRP78; assay: SPR; remark: listed apart in the source

T1 sequence (P11021 19-654): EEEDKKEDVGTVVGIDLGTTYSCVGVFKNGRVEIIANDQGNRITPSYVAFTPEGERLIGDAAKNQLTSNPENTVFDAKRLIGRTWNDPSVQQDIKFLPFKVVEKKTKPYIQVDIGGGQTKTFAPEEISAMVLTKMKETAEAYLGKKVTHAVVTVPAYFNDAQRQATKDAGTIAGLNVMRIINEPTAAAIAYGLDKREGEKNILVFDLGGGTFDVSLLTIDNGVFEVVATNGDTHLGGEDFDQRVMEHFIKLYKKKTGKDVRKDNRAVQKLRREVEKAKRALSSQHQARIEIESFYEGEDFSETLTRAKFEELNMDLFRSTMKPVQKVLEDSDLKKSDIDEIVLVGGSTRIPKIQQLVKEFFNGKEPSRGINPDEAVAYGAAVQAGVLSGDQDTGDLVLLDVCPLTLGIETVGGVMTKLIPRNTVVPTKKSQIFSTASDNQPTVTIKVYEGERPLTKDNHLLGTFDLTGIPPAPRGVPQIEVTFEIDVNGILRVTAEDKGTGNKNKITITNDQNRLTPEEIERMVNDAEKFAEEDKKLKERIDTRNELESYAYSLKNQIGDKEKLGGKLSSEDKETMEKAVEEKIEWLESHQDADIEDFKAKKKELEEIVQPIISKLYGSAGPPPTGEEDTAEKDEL

Binder	koff [1]	Kd [2]	koff [3]	Kd [4]
B1	0.678 s⁻¹	3430 µM		
B2			0.43 s⁻¹	259 µM
